# Assays:
# [1] = molecular target: Flag-RAI-3 recombinant protein expressed in the stable Flag-RAI-3 CHO cell line (CHO/NFAT G alpha 15), clone B8 (human) (UniProt Q8NFJ5); experiment: FACS, clone B8 against parental CHO
# [2] = molecular target: Flag-RAI-3 recombinant protein expressed in the stable Flag-RAI-3 CHO cell line (CHO/NFAT G alpha 15), clone B8 (human) (UniProt Q8NFJ5); experiment: FACS, gating 100%; parental CHO mean signal 4.82
# Chain of UniProt Q8NFJ5 (Q8NFJ5 other isoform, or with tags, fused parts or gaps): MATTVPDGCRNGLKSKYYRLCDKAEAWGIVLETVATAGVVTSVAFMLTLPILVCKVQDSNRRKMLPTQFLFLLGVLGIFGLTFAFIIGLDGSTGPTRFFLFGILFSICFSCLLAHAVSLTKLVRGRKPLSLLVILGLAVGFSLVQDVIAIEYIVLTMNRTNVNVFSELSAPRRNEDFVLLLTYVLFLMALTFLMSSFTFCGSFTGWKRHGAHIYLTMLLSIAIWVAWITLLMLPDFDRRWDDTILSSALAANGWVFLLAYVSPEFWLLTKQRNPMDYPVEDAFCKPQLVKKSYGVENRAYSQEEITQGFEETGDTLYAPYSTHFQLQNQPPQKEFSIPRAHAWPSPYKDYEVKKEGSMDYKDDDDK
substance,measurement,setting,value
"Anti-FLAG FITC (Sigma, Catalog #F4049) (antibody)",fold over background,[1],7 fold
same,mean signal,[2],35

# From US20040121362A1
